Data: paper PMC7967050 (Advanced Science, 2021)

B1: anti-CD38 scFv antibody RP02 (scFv, V domains shown)
VH: PAQLVESGPGLVKPSGTLSLTCAVSGGSISSSNWWSWVRQPPGKGLEWIGEIYHSGSTNYNPSLKSRVTISVDKSKNQFSLKLSSVTAADTAVYYCAREDYYYYMDVWGKGTTVTVQS
VL: QSVLTQPPSVSAAPGQKVTISCSGSSSNIGNNYVSWYQQLPGTAPKLLIYDNNKRPSGIPDRFSGSKSGTSATLGITGLQTGDEADYYCGTWDSSLSAGVFGGGTKLTVL
notes: selected from a combinatorial scFv phage library; In the functional rows the scFv stands in a CAR on T cells; also called RP02 scFv; source: purified scFv
B2: high-affinity anti-CD38 antibody 028 (scFv) (scFv, V domains shown)
VH: QVQLVQSGAEVKKPGSSVKVSCKAFGGTFSSYAISWVRQAPGQGLEWMGRIIRFLGIANYAQKFQGRVTLIADKSTNTAYMELSSLRSEDTAVYYCAGEPGERDPDAVDIWGQGTMVTVSS
VL: DIQMTQSPSSLSASVGDRVTITCRASQGIRSWLAWYQQKPEKAPKSLIYAASSLQSGVPSRFSGSGSGTDFTLTISSLQPEDFATYYCQQYNSYPLTFGGGTKVEIK
notes: In the functional rows the scFv stands in a CAR on T cells; source: purified scFv

Key:
[1] = target: T1, CD38 on the cell surface (RPMI8226, Daudi, hPBMC) (Homo sapiens, UniProt P28907); assay: flow cytometry on cells; purified scFv incubated with hPBMC, Daudi or RPMI8226 cells, fluorescence labeled secondary antibody; MFI normalised to that of 028 scFv; conditions: one partner purified
T1 construct: human CD38, endogenous on the surface of RPMI8226, Daudi and PBMC cells; In the functional rows the same protein is also expressed in K562 cells from electroporated CD38 mRNA; also called cell surface CD38; membrane-expressed CD38; source: endogenous, on RPMI8226, Daudi and human PBMC cells

ECD domain of mouse CD38 = target: T2, ECD domain of mouse CD38 (Mus musculus, UniProt P56528); assay: BLI; purified scFv antibodies against mCD38-ECD on an Octet; set-up for the mouse protein not told; conditions: both partners purified
T2 construct: mouse CD38, extracellular domain; also called mCD38-ECD
T2 sequence (P56528 45-304): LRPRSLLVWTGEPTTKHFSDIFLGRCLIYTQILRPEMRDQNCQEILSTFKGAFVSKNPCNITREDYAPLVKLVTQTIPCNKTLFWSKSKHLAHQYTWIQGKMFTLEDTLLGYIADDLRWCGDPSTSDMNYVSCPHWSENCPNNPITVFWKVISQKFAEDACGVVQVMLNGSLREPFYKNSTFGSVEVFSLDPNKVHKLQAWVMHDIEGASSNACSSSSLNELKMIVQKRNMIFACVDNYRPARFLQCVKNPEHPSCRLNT

[2] = target: T3, Recombinant human CD38 extracellular domain (amino acids 43–300, hCD38-ECD) (Homo sapiens, UniProt P28907, biotin (EZ-Link NHS-PEG4-biotin) for panning and for capture on the SA biosensor; not said for the cross-linking); assay: BLI; Octet Red96, room temperature; biotin conjugated hCD38-ECD captured on SA biosensor; scFv in PBS, 0.02% Tween-20, 0.05% BSA, pH 7.4; association 300 s, dissociation 1200 s; 1:1 Langmuir model; for RP02 (biphasic dissociation) only the initial 0-330 s fitted, apparent KD; conditions: both partners purified
T3 construct: human CD38, extracellular domain, amino acids 43-300; also called purified CD38; extracellular domain of human CD38; source: bought: Sino Biological, Cat. No. 10818-H08H

| Binder | binding result [1] | binding result (ECD domain of mouse CD38) | Kd [2] [pM] |
| --- | --- | --- | --- |
| B1 | binds | no binding |  |
| B2 |  |  | 650 |
